assay: soluble on expression in E. coli; label from the status in PepcDB or PDB records

| Sequence | soluble on expression in E. coli |
| --- | --- |
| GPGSMAGAADPRDEDAKAVNAVLRLPEDDFYAVLGLGEAREDATERDIKNAFRRLSKKYHPDVATGDQDSYRLVYQRVQRAYEVLGDRRKRKIYDILGIDGVTRLEKPQQQQQMNPFFAFFGVGQQADAERGKDMVLLMVVPLEDIYRGAAHTSRFAKRKICRACKGTGARSGEDVVKCPHCQGRGRLAQRVQIAPGFVQQVEQVCPHCQGKGTHVAHMCPVCRGKMVLPGEAVLSVDIEEGLPEGHVLTYELEADQAPGQVPGDVLLTVISAPHPVFHRSGNDLYANVSITLKEALLGFKKTLAHLDGHNVELHWDGVMQNTQQVRIAGEGMPRHHVPSERGDLYITYNVLLPEALTAEQRALFQEHFA | not soluble |
| MSITINKLEIENVKRIKAVKIEPSATGLTIIGGNNNQGKTSVLDAIAWALGGNKYKPSQAMREGSQVPPTLKITMSNGLIVERKGKNASLKVIDPNGQKGGQQLLDSFVEELAINLPKFMDSTPKEKADVLLEIIGVGDQLAELELKEKEIYNQRHAIGVIADQKEKFAKEMTYYPDAPKQLVSISELIQQHQAILAKNGENAQKRQNVERIRYDYNQSILEVDRLRKLLADAEAKTNKLSEDLKIANTDAMDLHDESTAEIEANIADIDEVNRKVRANFDKDKAEEDAKQQREQYNILTNDIESIRQQKRDLLINADLPLEGLSVDDGKLLYLGQEWDNMSGSQQLIVATAIVRKLKPDCGFVLIDKLEQMDNITLEQFGKRLEQEGLQAIATRVSIGEECAIIIEDGYSVENKAHNFKTAEGGNFAETVAPTWKGEF | not soluble |
| MSGKNEADSKDTGWEQIKDKGKIVVATSGTLYPTSYHDTDSGSDKLTGYEVEVVREAAKRLGLKVEFKEMGIDGMLTAVNSGQVDAAANDIDVTKDREEKFAFSTPYKYSYGTAIVRKDDLSGIKTLKDLKGKKAAGAATTVYMEVARKYGAKEVIYDNATNEQYLKDVANGRTDVILNDYYLQTLALAAFPDLNITIHPDIKYMPNKQALVMKKSNAALQKKMNEALKEMSKDGSLTKLSKQFFNKADVSKKIDADVQDVDLLEHHHHHH | soluble |
| AIACHTQVGGSMQVPEPRRPFTCSSENNVTNSFFEEAYSASFRSKLYNMVEEIEQERAKYCNSANLSYMDAFGVEKESIEEDYNKEEDRDSLCSVDIADNSETSNRSSEDLLCDNCSKSLMFLNNVFKWNDLLFCNLDCYTSAILKNQKGADVKHRVACSLSPTWHKDCVHSVQD | soluble |
| MAHFGKLALSVTAAAVLALSAQARDQIKMAGSSTVYPFSSYVAEEFGATTGNKTPVVESLGTGGGFKVFCAGDGLDTTDIANASRPIKKSEFDNCVANGVTDITGVMIGYDGISIAQSKANAAINFKIEHLFLALAEEVPVDGKLVKNPYKTWNQVDASLPNRPIVVYGPPTTS | not soluble |
| MGSSHHHHHHGKTIFVIVPTNEEQVAFLEALAKQDELNFDWQNPPTEPGQPVVILIPSDMVEWFLEMLKAKGIPFTVYVEEGGSENLYFQGGGGGGLASGSSSAEGGAKRFSRQQIIQHVKKSLLYTAFDVRWVPQTASFAVVGQYPNNHGALSVYQLHHGDVQPTVEVRLPHPLKCCTFGHNISFSSSGSGSGGNSSSITAANATMNQIATGDFAGSLQIFDLSRLGSTPPSAPNALSDVTAASVLHIPHAHESIINAIDGARYSGPPEVATGSRDGSVKVWDTRQSNKPVVSLNPADPARARDCWTVRLGNSFDPDERVVAAGYDNGDVKIFDLRTQKMLHEMHVNNGVCDLEFDRPDIPMNKLLVSSLEGRVRCYDMRTLHPKLGYAYVEERVSEGTVWCSRALPQNREIFLSGGGGELTLCLYKYPPERTLKDGDGLQRGVAGAVEELNKAKIGDQPINAMDWNRSKEGLAVCASFDQSIRVMLVTKLGLLS | not soluble |
| MGSDKIHHHHHHMPETLNLNYYYGNEADQYSFYRIPKTLLTDRRYKGVSLEAKVLYGLLLDRMGLSARNGWLDNNGRVFLYFTQEEAMTMLGCGKDKVTKLFRELEGIGLMERKKQGQGHPARIYVKNFILEPEPTAPVQTAENQQSRPLPSAAVKTAEKPQSAPRKTSGQECGISAPNNTDINKTEKSDTDLSILPPTPSAVSSPAGKRAPRRMGLDEMESYRELIMENIDYDILLERYPYEKDLLDGYVELMLEVCCSTRESVRICGQEVPTEVIKSRFLKLNSEHIGYVMDSLKSNTAKIGNIKAYTLAALYNAPVTMGQYYTSLVSHDMAHGLLSG | not soluble |
| MSASETRSKVLTDESTGSTAIEESPRNRQNEEPEQTSQTENLQTDPFNARISEIFEKQTVAFERQMMIKEEEFMSQMKEREEVKLKDLETKLENFEKWRKEIRLEGAKELNIKLHSEPEVSAELEHEGGLQEK | not soluble |
